Results taken from the DeepSol protein solubility set.

experiment: soluble on expression in E. coli; label from the status in PepcDB or PDB records

Sequence | soluble on expression in E. coli
MVLEATVLVIDNSEYSRNGDFPRTRFEAQIDSVEFIFQAKRNSNPENTVGLISGAGANPRVLSTFTAEFGKILAGLHDTQIEGKLHMATALQIAQLTLKHRQNKVQHQRIVAFVCSPISDSRDELIRLAKTLKKNNVAVDIINFGEIEQNTELLDEFIAAVNNPQEETSHLLTVTPGPRLLYENIASSPIILEEGSSGMGAFGGSGGDSDANGTFMDFGVDPSMDPELAMALRLSMEEEQQRQERLRQQQQQQDQPEQSEQPEQHQDK | soluble
MNTVLIPPGPGGYGKGLWLPVGSGKKVLSLTGREIHPVAIEIGALTQSEVVNGFADIPPDNDILCVVINCAGSLRCGLYPQKGIPTINVLPTWRAGPLAQFITEENYVSGVTMEQLVLVDTAEAPDGKPETTQEPAPRVISTPPSPRGAEKLVRMVEQTGTAVGHVIALLFAASREAVDVSLRN | not soluble
MSSIDPATFAAQFAQIEIQPFKQRYQLQTNTYQSQLSALGKVESAMREFRTALNEMNSSTNSIIKNSTSISQEGYFTANADAKALSGSYQIFVEQVATSHQ | not soluble
GKITFYEDRGFQGHCYESSSDCPNLQPYFSRCNSIRVDSGCWMLYERPNYQGHQYFLRRGDYPDYQQWMGFNDSIRSCRLIPQHTGTFRMRIYERDDFRGQMSEITDDCPSLQDRFHLTEVHSLNVLEGSWVLYEMPSYRGRQYLLRPGEYRRYLDWGAMNAKVGSLRRVMDFY | soluble
MSGLKLVTVLLLALCTATEAAKCRGKYMEMRGREGFVTRGGCRGLDSQIQEEYWTTVGFDGDLRDGRTTDDFLVFPANENNGHTQTNSFVGYWDMKESVNPITRSKYGENVHYEAFGHAFIKPDGKVCGWFVGSHKEVVEVCGGFRVLSRSRFNPHQPIPFEWVQGEQYRNRDVLGFHHHKIAKYEANADEVLFGDADVKGKKFNGVSINNEQRVEVDTPETFHRKVWLLRKKSTQPPSDVRAAYHHPRKLL | not soluble
MAEVKGMTVFNTEEVNTKKQPMFFGKPLGVQRYDNFKYPSFENLTKQQLGYFWRPEEVSLQKDRGDYQTLRPEQKHIYTSNLKYQIMLDSVQGRAPGMAFLPYCSLPELEACMEVWSFMEMIHSRSYTYVIKNVYADPSEVFDKILSDDRILSRAASVTESYDDFINEAQGWGQSNLWRDMDKSLDTSLPVLEMKEVKRKLYRAVTNVNILEGIRFYVSFACSFAFGELKVMEGSAKIISLIARDENQHLAITQNILNNWRKGDDPEMVEIMKEEEQWTYQMFEKCVNEEKMWAEYLFKDGSMIGLNDKLLHQYVEWVANRRMRSIGMKPVYDIAAKNNPLPWTEHWISSKGLQVAPQETEVESYIVGGIKQDVKKDTFAGFKL | soluble
MGKSIPVKTGLRGASAAVAGFIKSSKPIRPISSMDSSDKDSSSTTTTSETTRRFVPLSSVVSDCAKRWFKDTLEEAKAGNITMQVLLGQMYYSGYGVPKDARKVSSLFPPFQSLLFQVLGYNASDSDSESD | not soluble
MSEFHSEISTLSPAPLWQFFDKICSIPHPSKHEEALAQYIINWATEQGFDVRRDPTGNVFIKKPATPGMENKKGVVLQAHIDMVPQKNEDTDHDFTKDPIQPYIDGEWVTAKGTTLGADNGIGMASCLAVLASKDIKHGPIEVLLTIDEEAGMTGAFGLEAGWLEGDILLNTDSEQEGEVYMGCAGGIDGAMTFDIKRDAIPTGFVTRQLTLKGLKGGHSGCDIHTGRGNANKLLGRFLAGHAQELDLRLVEFRGGSLRNAIPREAFVTVAVPAENQEKLAELFNYYTELLKAELGKVETGIVTFNEEIVTESQAFTAADQQRFIAALNACPNGVMRMSDEIEGVVETSLNVGVITTEENKVTVLCLIRSLIDSGRSQVESMLRSVAELAGAQVEFSGAYPGWKPDADSEIMAIFRDMYEGIYGHKPNIMVIHAGLECGLFKEPYPNMDMVSFGPTIKFPHSPDEKVKIDTVQLFWDQMVALLEAIPEKALEHHHHHH | soluble
